Experimental data as given in publication PMC6797610, “Functional Analysis of 3-Dehydroquinate Dehydratase/Shikimate Dehydrogenases Involved in Shikimate Pathway in Camellia sinensis” (Frontiers in Plant Science, 2019).

Legend:
CsDQD/SDHb [1] = biological target: CsDQD/SDHb (Camellia sinensis, UniProt A0A3G3BK08); assay: HPLC product quantification; format: biochemical; conditions: SA oxidation, 1 mM SA, 1 mM NADP+; BTP-HCl pH 7.5, 30°C, 30 min; very low activity, Km not determinable
CsSDHa = biological target: T1, CsSDHa (Camellia sinensis, UniProt A0A3G3BK14); assay: HPLC product quantification; format: biochemical; conditions: 1 mM each, BTP-HCl pH 7.5, 30°C
T1 construct: SDH unit only of CsDQD/SDHa (Ile-328 to Gly-588 in AtSDH numbering), MBP fusion from pMAL-c2x, E. coli

CsDQD/SDHb [2] = biological target: CsDQD/SDHb (Camellia sinensis, UniProt A0A3G3BK08, G296T/D398N/I399R/D400T, form not given); assay: HPLC product quantification; format: biochemical; conditions: MTCsDQD/SDHb; SA oxidation with NADP+; residue numbers after AtDQD/SDH
CsDQD/SDHb (Camellia sinensis, UniProt A0A3G3BK08, G296T/D398N/I399R/D400T, form not given), sequence (A0A3G3BK08 entry or part of it G296T/D398N/I399R/D400T, form open): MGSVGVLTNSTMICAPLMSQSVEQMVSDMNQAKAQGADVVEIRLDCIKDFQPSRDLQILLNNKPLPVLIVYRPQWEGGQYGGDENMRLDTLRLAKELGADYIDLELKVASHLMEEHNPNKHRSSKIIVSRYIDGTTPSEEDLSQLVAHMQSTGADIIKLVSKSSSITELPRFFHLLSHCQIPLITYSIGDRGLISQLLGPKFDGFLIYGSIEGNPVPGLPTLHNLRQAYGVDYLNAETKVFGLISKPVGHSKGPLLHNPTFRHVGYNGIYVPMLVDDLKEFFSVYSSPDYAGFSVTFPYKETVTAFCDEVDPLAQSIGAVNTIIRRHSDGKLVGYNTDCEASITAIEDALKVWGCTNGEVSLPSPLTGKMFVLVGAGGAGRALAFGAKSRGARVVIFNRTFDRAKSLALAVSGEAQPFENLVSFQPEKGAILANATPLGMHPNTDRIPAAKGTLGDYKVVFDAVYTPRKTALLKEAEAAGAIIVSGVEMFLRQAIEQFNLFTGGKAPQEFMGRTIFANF

[3] = substrate: NC(=O)c1ccc[n+]([C@@H]2O[C@H](COP(=O)(O)OP(=O)(O)OC[C@H]3O[C@@H](n4cnc5c(N)ncnc54)[C@H](OP(=O)(O)O)[C@@H]3O)[C@@H](O)[C@H]2O)c1; assay: HPLC product assay, Michaelis-Menten; format: biochemical, Camellia sinensis; conditions: SA oxidation to 3-DHS, co-substrate SA 1.5 mM, BTP-HCl pH 8.5, 30°C, 3 min
Description: (§1) HPLC product assay, Michaelis-Menten on CsDQD/SDHa

[4] = substrate: O=C(O)C1=CC(=O)[C@@H](O)[C@H](O)C1; assay: HPLC product assay, Michaelis-Menten; format: biochemical, Camellia sinensis; conditions: 3-DHS reduction to SA, co-substrate NADPH (per table; b27 pairs the cofactors the other way round), 1.5 mM, BTP-HCl pH 8.5, 30°C, 3 min
Description: as §1

[5] = substrate: NC(=O)C1=CN([C@@H]2O[C@H](COP(=O)(O)OP(=O)(O)OC[C@H]3O[C@@H](n4cnc5c(N)ncnc54)[C@H](OP(=O)(O)O)[C@@H]3O)[C@@H](O)[C@H]2O)C=CC1; assay: HPLC product assay, Michaelis-Menten; format: biochemical, Camellia sinensis; conditions: 3-DHS reduction to SA, co-substrate 3-DHS 1.5 mM, BTP-HCl pH 8.5, 30°C, 3 min
Description: as §1

[6] = substrate: O=C(O)C1=C[C@@H](O)[C@@H](O)[C@H](O)C1; assay: HPLC product assay, Michaelis-Menten; format: biochemical, Camellia sinensis; conditions: SA oxidation to 3-DHS, co-substrate NADP+ (per table; b27 pairs the cofactors the other way round), 1.5 mM, BTP-HCl pH 8.5, 30°C, 3 min
Description: as §1

[7] = substrate: NC(=O)c1ccc[n+]([C@@H]2O[C@H](COP(=O)(O)OP(=O)(O)OC[C@H]3O[C@@H](n4cnc5c(N)ncnc54)[C@H](OP(=O)(O)O)[C@@H]3O)[C@@H](O)[C@H]2O)c1; assay: HPLC product assay, Michaelis-Menten; format: biochemical, Camellia sinensis; conditions: SA oxidation to 3-DHS, co-substrate SA 1.5 mM, BTP-HCl pH 8.5, 30°C, 3 min; remark: listed apart in the source
Description: (§2) HPLC product assay, Michaelis-Menten on CsDQD/SDHc

[8] = substrate: O=C(O)C1=CC(=O)[C@@H](O)[C@H](O)C1; assay: HPLC product assay, Michaelis-Menten; format: biochemical, Camellia sinensis; conditions: 3-DHS reduction to SA, co-substrate NADPH 1.5 mM, BTP-HCl pH 8.5, 30°C, 3 min
Description: as §2

[9] = substrate: NC(=O)C1=CN([C@@H]2O[C@H](COP(=O)(O)OP(=O)(O)OC[C@H]3O[C@@H](n4cnc5c(N)ncnc54)[C@H](OP(=O)(O)O)[C@@H]3O)[C@@H](O)[C@H]2O)C=CC1; assay: HPLC product assay, Michaelis-Menten; format: biochemical, Camellia sinensis; conditions: 3-DHS reduction to SA, co-substrate 3-DHS 1.5 mM, BTP-HCl pH 8.5, 30°C, 3 min; remark: listed apart in the source
Description: as §2

[10] = substrate: O=C(O)C1=C[C@@H](O)[C@@H](O)[C@H](O)C1; assay: HPLC product assay, Michaelis-Menten; format: biochemical, Camellia sinensis; conditions: SA oxidation to 3-DHS, co-substrate NADP+ 1.5 mM, BTP-HCl pH 8.5, 30°C, 3 min
Description: as §2

[11] = substrate: NC(=O)c1ccc[n+]([C@@H]2O[C@H](COP(=O)(O)OP(=O)(O)OC[C@H]3O[C@@H](n4cnc5c(N)ncnc54)[C@H](OP(=O)(O)O)[C@@H]3O)[C@@H](O)[C@H]2O)c1; assay: HPLC product assay, Michaelis-Menten; format: biochemical, Camellia sinensis; conditions: SA oxidation to 3-DHS, co-substrate SA 1.5 mM, BTP-HCl pH 8.5, 30°C, 3 min; remark: listed apart in the source
Description: (§3) HPLC product assay, Michaelis-Menten on CsDQD/SDHd

[12] = substrate: O=C(O)C1=CC(=O)[C@@H](O)[C@H](O)C1; assay: HPLC product assay, Michaelis-Menten; format: biochemical, Camellia sinensis; conditions: 3-DHS reduction to SA, co-substrate NADPH 1.5 mM, BTP-HCl pH 8.5, 30°C, 3 min; remark: listed apart in the source
Description: as §3

[13] = substrate: NC(=O)C1=CN([C@@H]2O[C@H](COP(=O)(O)OP(=O)(O)OC[C@H]3O[C@@H](n4cnc5c(N)ncnc54)[C@H](OP(=O)(O)O)[C@@H]3O)[C@@H](O)[C@H]2O)C=CC1; assay: HPLC product assay, Michaelis-Menten; format: biochemical, Camellia sinensis; conditions: 3-DHS reduction to SA, co-substrate 3-DHS 1.5 mM, BTP-HCl pH 8.5, 30°C, 3 min; remark: listed apart in the source
Description: as §3

[14] = substrate: O=C(O)C1=C[C@@H](O)[C@@H](O)[C@H](O)C1; assay: HPLC product assay, Michaelis-Menten; format: biochemical, Camellia sinensis; conditions: SA oxidation to 3-DHS, co-substrate NADP+ 1.5 mM, BTP-HCl pH 8.5, 30°C, 3 min; remark: listed apart in the source
Description: as §3

CsDQD/SDHb (Camellia sinensis, UniProt A0A3G3BK08), sequence (A0A3G3BK08 entry or part of it): as the sequence (A0A3G3BK08 entry or part of it G296T/D398N/I399R/D400T, form open) above, with T296G, N398D, R399I, T400D counted along it

O=C(O)C1=C[C@@H](O)[C@@H](O)[C@H](O)C1 [SA]
HPLC product quantification (CsDQD/SDHb [1]): CsDQD/SDHb exhibited the lowest SA oxidation activity but had no 3-DHS reduction activity
HPLC product quantification (CsSDHa; SA oxidation with NADP+): a lower enzymatic activity for NADP^+-dependent oxidation of SA
HPLC product quantification (CsDQD/SDHb [2]): six times higher oxidation activity of SA than CsDQD/SDHb

O=C(O)C1=CC(=O)[C@@H](O)[C@H](O)C1 [3-DHS]
HPLC product quantification (CsSDHa; 3-DHS reduction with NADPH): CsSDHa recombinant protein had an almost identical enzymatic activity for NADPH-dependent reduction of 3-DHS

B1: CsDQD/SDHa (Camellia sinensis) (protein)
chain: MELVAPVVAGCGVKMESEGMRKNSTLICVPLMADSVDQMLIYMNKAKLNGADLVEVRLDSLKSFNPPLDIETLIKRCPLPTLFTYRPKWEGGMYDGDESSRLEALQLAMELGADYIDVELQVIHEFNSSMHGKKPAKCKLIVSSHNYENTPSVEDLGNLVVKIQATGADIVKIATTALDITDAARVFQITVHSQVRGVPIIAMVMGERGLMARILCPKFGGYLTFGTLESGIVSAPGQPTMDDLVNLYNIRQIGPDTKVFGIIGKPVGHSKSPILYNEAFKKVGFNGVYLHLLVDDVANFLQTYSSTDFAGFSCTIPHKEAALKCCDEVDPVAKSIGAVNCIVRKSDGKFFGCNTDYVGAITAIEDALGGLQHVNGMVVSPLSGKLFVVIGAGGAGKALAYGAKAKGAKVVIANRTYERAKEIADTIGGDALSLADLSNFHPEDGMILANTTSIGMQPKVDETPVPKQALKSYALVFDAVYTPKITRLLREAEESGAKIVTGVEMFIGQAYEQFERFTGLPAPKELFGKIMAKY
Km [3]: 138.031 µM
kcat/Km [3]: 845 M⁻¹ s⁻¹
Km [4]: 286.576 µM
kcat/Km [4]: 1410 M⁻¹ s⁻¹
Km [5]: 270.306 µM
kcat/Km [5]: 746 M⁻¹ s⁻¹
Km [6]: 272.782 µM
kcat/Km [6]: 562 M⁻¹ s⁻¹

B2: CsDQD/SDHc (Camellia sinensis) (protein)
chain: MASGSFSFATSDVQTSSSGVRSGPTLLCTPLIGTTVDQMLIDMRKAKEIGADMVEIRLDCLREFNPRPDLQILIKQSPLPTLVTYRPIWESGQYEGDENKRQDALRLAMELGADYIDVELQVAQEFNNSISAKKPEKFKVIVSSQNFHSTPSAEAIGNLVARIQATGADIVKIVTTALDITDVARIFQITVHSQIPMIGIAMGERGLISRLLSPKFNGYLTYAALEAGAISAPGQPTVKDLLDLYNFRLIRPDTKVYGIIGKPVGHSKSPLLFNESFKKVGLNSVYVHLLVDDVKKFFSTYSSVDFAGFSCTIPHKEVALECMDEIDQIAKKIGAINNIVRRPDGTLKSYNTDYIGAISAIEDGLRESNGSSPATSSPLAGKLFVVLGAGGAGKSLAYGAQQKGARVVVANRTFERAKELAEKVGGKALTLEEVNDFHPEEGMILANTTSVGMKPNIDLTPISKEALKHYDLVFDAIYTPKDTRLLREARECGKIIVYGTEMLIRQGFEQYKNFTGLQAPEELFRELMSRHA
Km [7]: 114.553 µM
kcat/Km [7]: 372 M⁻¹ s⁻¹
Km [8]: 330.933 µM
kcat/Km [8]: 507 M⁻¹ s⁻¹
Km [9]: 267.244 µM
kcat/Km [9]: 193 M⁻¹ s⁻¹
Km [10]: 199.653 µM
kcat/Km [10]: 536 M⁻¹ s⁻¹

B3: CsDQD/SDHd (Camellia sinensis) (protein)
chain: MTLSSIPISEGGRRNPTMICAPVMAENVDQMLLMMRKAKELGADLVEVRIDYLKNFSPHHDLQILIKQCPLPTLITYRPTWEGGQFDGDETRRQAALRQAVELGADYIDIELKVADEFYKLIQGKKPEKVKIIVSSHNYENTPSAEEIGNLAARIQATGADIVKIATTAQDITDSARIFQLLAHSQVPTIGIVMGERGLMSRILCAKFGGFLTFGALESGIVSAPGQPTLKDLLELYNFRQIGPDTKVHGVIGNPIGHSKSPHLYNTAFRSAGFNGIYLPLLVDSVANFFNTYSSPDFVGYSYTIPHKEAGLKCCDEVDPIAEAIGAISCMVRKPSDGKLIGYNVDYLGAIGAIEEALGGSNGSSNGAVSPLASKLFVVIGAGGAGKALAYGGKEKGARVVVANRTYEKAKELASKVDGEAITLAELDDFHPEDGMILANTTSVGMKPKTDATPISKKALNRYSLVFGAIYTPKWTRLLQEAQDSGAKVVFGTEMFINQAFVQFERFTGMPAPKELIRETLAKNT
Km [11]: 46.342 µM
kcat/Km [11]: 128 M⁻¹ s⁻¹
Km [12]: 465.971 µM
kcat/Km [12]: 99.5 M⁻¹ s⁻¹
Km [13]: 248.798 µM
kcat/Km [13]: 197 M⁻¹ s⁻¹
Km [14]: 610.643 µM
kcat/Km [14]: 138 M⁻¹ s⁻¹
